This is an account of results in the supplement of paper PMC10567573.

B1: CDC14A (parent)
chain: LNLAMVYRYCCKLNKKLKSYSLSR
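Further: lentivirally expressed fusions sorted by FACS into six bins by GFP to DsRed ratio, PSI derived from sequencing read proportions per bin multiplied by bin number.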

Variants of B1 are the subject of this data set. In words: protein stability index of a GFP-peptide fusion (GPS, HEK-293T) (PSI 1-6); higher = more stable. Conditions: c terminus: a fixed tail appended.
Regarding LNRAMVYRYCCKLNKKLKSYSLSR [L3R], the protein stability index was 2.17. As for LNYAMVYRYCCKLNKKLKSYSLSR [L3Y], the figure is 1.81; as for LNTAMVYRYCCKLNKKLKSYSLSR [L3T], 2.79; as for LNVAMVYRYCCKLNKKLKSYSLSR [L3V], 2.59. In the case of LNSAMVYRYCCKLNKKLKSYSLSR [L3S] it was 2.2. In the case of LNLAMHYRYCCKLNKKLKSYSLSR [V6H] it was 2.03; in that of LNLAMGYRYCCKLNKKLKSYSLSR [V6G], 1.73; in that of LNLAMAYRYCCKLNKKLKSYSLSR [V6A], 3.5. In the case of LNLAMWYRYCCKLNKKLKSYSLSR [V6W], the protein stability index amounted to 3.43.

In the case of LNLAMIYRYCCKLNKKLKSYSLSR [V6I], the protein stability index came out at 3.28. In the case of LNLAMRYRYCCKLNKKLKSYSLSR [V6R] it was 2.78; in that of LNLAMKYRYCCKLNKKLKSYSLSR [V6K], 2.39. In the case of LNLAMTYRYCCKLNKKLKSYSLSR [V6T] it was 2.46; in that of LNLAMLYRYCCKLNKKLKSYSLSR [V6L], 2.01; in that of LNLAMFYRYCCKLNKKLKSYSLSR [V6F], 5.59. LNLAMQYRYCCKLNKKLKSYSLSR [V6Q]: the protein stability index was determined as 2.85. In the case of LNLAMCYRYCCKLNKKLKSYSLSR [V6C] it was 3.05; in that of LNLAMMYRYCCKLNKKLKSYSLSR [V6M], 2.72.

On to LNLAMEYRYCCKLNKKLKSYSLSR [V6E], for which the protein stability index worked out at 1.76. Take LNLAMSYRYCCKLNKKLKSYSLSR [V6S]: the protein stability index is 2.5. In the case of LNLAMYYRYCCKLNKKLKSYSLSR [V6Y] it was 2.45; in that of LNLAMNYRYCCKLNKKLKSYSLSR [V6N], 1.63. In the case of LNLAMPYRYCCKLNKKLKSYSLSR [V6P], the protein stability index came to 2.15.

On to LNLAMDYRYCCKLNKKLKSYSLSR [V6D], for which the protein stability index is 2.05. Regarding LNLAMVYRYKCKLNKKLKSYSLSR [C10K], the protein stability index came to 1.65.

Regarding LNLAMVYRYACKLNKKLKSYSLSR [C10A], the protein stability index amounted to 2.41. As to LNLAMVYRYNCKLNKKLKSYSLSR [C10N], the protein stability index was determined as 1.95.

As for LNLAMVYRYVCKLNKKLKSYSLSR [C10V], the protein stability index stood at 3.25.

Take LNLAMVYRYRCKLNKKLKSYSLSR [C10R]: the protein stability index was 1.59. In the case of LNLAMVYRYPCKLNKKLKSYSLSR [C10P], the protein stability index turned out to be 2.05.

As to LNLAMVYRYECKLNKKLKSYSLSR [C10E], the protein stability index amounted to 1.98.

With LNLAMVYRYDCKLNKKLKSYSLSR [C10D], the protein stability index was determined as 2.31. In the case of LNLAMVYRYTCKLNKKLKSYSLSR [C10T] it was 2.32; in that of LNLAMVYRYICKLNKKLKSYSLSR [C10I], 4.27; in that of LNLAMVYRYHCKLNKKLKSYSLSR [C10H], 3.62.

Regarding LNLAMVYRYGCKLNKKLKSYSLSR [C10G], the protein stability index stood at 2.71. In the case of LNLAMVYRYSCKLNKKLKSYSLSR [C10S] it was 2.28; in that of LNLAMVYRYLCKLNKKLKSYSLSR [C10L], 2.67; in that of LNLAMVYRYYCKLNKKLKSYSLSR [C10Y], 4.25. As for LNLAMVYRYQCKLNKKLKSYSLSR [C10Q], the figure is 2.8. As for LNLAMVYRYFCKLNKKLKSYSLSR [C10F], the figure is 2.71. Regarding LNLAMVYRYWCKLNKKLKSYSLSR [C10W], the protein stability index amounted to 3.64. On to LNLAMVYRYMCKLNKKLKSYSLSR [C10M], for which the protein stability index worked out at 2.89. For the variant LNLAMVYRYCCKGNKKLKSYSLSR [L13G], the protein stability index was found to be 2.49.

As to LNLAMVYRYCCKKNKKLKSYSLSR [L13K], the protein stability index was found to be 1.56. As for LNLAMVYRYCCKFNKKLKSYSLSR [L13F], the figure is 3.31; as for LNLAMVYRYCCKQNKKLKSYSLSR [L13Q], 3.27. In the case of LNLAMVYRYCCKTNKKLKSYSLSR [L13T] it was 2.08. As for LNLAMVYRYCCKWNKKLKSYSLSR [L13W], the figure is 1.96; as for LNLAMVYRYCCKDNKKLKSYSLSR [L13D], 2.11.

For LNLAMVYRYCCKRNKKLKSYSLSR [L13R], the protein stability index turned out to be 3.08. As for LNLAMVYRYCCKPNKKLKSYSLSR [L13P], the figure is 1.2; as for LNLAMVYRYCCKANKKLKSYSLSR [L13A], 2.92; as for LNLAMVYRYCCKMNKKLKSYSLSR [L13M], 3.6.

Consider LNLAMVYRYCCKVNKKLKSYSLSR [L13V], for which the protein stability index was found to be 4.56.

Turning to LNLAMVYRYCCKSNKKLKSYSLSR [L13S], the protein stability index amounted to 1.8. In the case of LNLAMVYRYCCKENKKLKSYSLSR [L13E] it was 2.48; in that of LNLAMVYRYCCKNNKKLKSYSLSR [L13N], 1.89.

As to LNLAMVYRYCCKCNKKLKSYSLSR [L13C], the protein stability index came to 2.79. Turning to LNLAMVYRYCCKHNKKLKSYSLSR [L13H], the protein stability index turned out to be 2.

As to LNLAMVYRYCCKYNKKLKSYSLSR [L13Y], the protein stability index was 2.32.

In the case of LNLAMVYRYCCKINKKLKSYSLSR [L13I], the protein stability index was 2.69. As for LNLAPVYRYCCKLNKKLKSYSLSR [M5P], the figure is 3.2. As to LNLAGVYRYCCKLNKKLKSYSLSR [M5G], the protein stability index was 3.92. In the case of LNLAAVYRYCCKLNKKLKSYSLSR [M5A] it was 2.67; in that of LNLAVVYRYCCKLNKKLKSYSLSR [M5V], 2.54. In the case of LNLADVYRYCCKLNKKLKSYSLSR [M5D] it was 3.92; in that of LNLACVYRYCCKLNKKLKSYSLSR [M5C], 4.65. As for LNLAYVYRYCCKLNKKLKSYSLSR [M5Y], the figure is 3.21. In the case of LNLAKVYRYCCKLNKKLKSYSLSR [M5K], the protein stability index was determined as 3.87. In the case of LNLATVYRYCCKLNKKLKSYSLSR [M5T] it was 3.46. In the case of LNLAFVYRYCCKLNKKLKSYSLSR [M5F] it was 2.8; in that of LNLANVYRYCCKLNKKLKSYSLSR [M5N], 3.77; in that of LNLALVYRYCCKLNKKLKSYSLSR [M5L], 2.57.

For LNLAWVYRYCCKLNKKLKSYSLSR [M5W], the protein stability index came to 3.48.

On to LNLAQVYRYCCKLNKKLKSYSLSR [M5Q], for which the protein stability index is 1.56. In the case of LNLAEVYRYCCKLNKKLKSYSLSR [M5E] it was 3. In the case of LNLAHVYRYCCKLNKKLKSYSLSR [M5H] it was 3.35; in that of LNLAMVYQYCCKLNKKLKSYSLSR [R8Q], 2.26; in that of LNLAMVYTYCCKLNKKLKSYSLSR [R8T], 2.03.

As to LNLAMVYEYCCKLNKKLKSYSLSR [R8E], the protein stability index came to 2.43. For the variant LNLAMVYDYCCKLNKKLKSYSLSR [R8D], the protein stability index came out at 3.23. With LNLAMVYSYCCKLNKKLKSYSLSR [R8S], the protein stability index was determined as 2.98. As for LNLAMVYVYCCKLNKKLKSYSLSR [R8V], the figure is 3.11; as for LNLAMVYPYCCKLNKKLKSYSLSR [R8P], 2.09; as for LNLAMVYYYCCKLNKKLKSYSLSR [R8Y], 2.67. In the case of LNLAMVYFYCCKLNKKLKSYSLSR [R8F] it was 3.02; in that of LNLAMVYCYCCKLNKKLKSYSLSR [R8C], 3.52; in that of LNLAMVYNYCCKLNKKLKSYSLSR [R8N], 1.97.

LNLAMVYHYCCKLNKKLKSYSLSR [R8H]: the protein stability index came out at 4.35. In the case of LNLAMVYIYCCKLNKKLKSYSLSR [R8I] it was 2.62. As for LNLAMVYGYCCKLNKKLKSYSLSR [R8G], the figure is 3.71; as for LNLAMVYLYCCKLNKKLKSYSLSR [R8L], 3.17.

LNLAMVYKYCCKLNKKLKSYSLSR [R8K]: the protein stability index worked out at 2.08.
